We go through 31 sequences from a protein production outcome set (Wang et al. 2014).

This data set can be described thus: label from the status in PepcDB records.
With “DDSLGEAVTTRAEALTIPAVLRARNLLSTTVARTPLVCDGTLPPFVPVAAPPGAATMQTPFHRMLATADDLLFNGVACWALDRDESGTCIGAIHIPLDTWQIEENTVRVNGKAVDPMEVCIFVGIHGGLLTHASETFTDARNLVRAAARVAQNPAALIELRQTNNAQLSPDDVDRIINGYVAARRGRNSGVGFSSSGLEVHEHEMAKENLLIEGRNAAAVDVARAMNVPAAFIDATVGGTSLSYQNAASRMIELVTFGVEPLMSAIEARLNQPDMHADHLANPLKFDPAALLDAIPTTPTIGAQPHGENS”, the protein production entry is on record as “not failed”.

Take “DEETKAFEALLSNIVKPVASDIQARTVVLTWSPPSSLINGETDESSVPELYGYEVLISSTGKDGKYKSVYVGEETNITLNDLKPAMDYHAKVQAEYNSIKGTPSEAEIFTTLSCEPDIPNPPRI”: the protein production entry is reported as “not failed”.

Take “DEGYWDCSVCTFRNSAEAFKCMMCDVRKGTSTRKPRPVSQ”: the protein production result was “not failed”.

With “DFELLHKLGGGNYGDVHLASVKDCNFVCALKRLSIKKLADFDIATQLRREIEIAFNTRHKYLLRTYAYFFDETDIYLIMEPCSNGMLYTELNRVKCFAPPTAARYVAQLAEALLYLHQHHILHRDIKPENILLDHNNNIKLADFGWSVHDPDNRRKTSCGTPEYFPPEIVGRQAYDTSADLWCLGIFCYELLVGKTPFVGKDTDQICKNIHSMHFKIPENIPSEAKDLIANLLLRDGSRRLALHRVVNHQFLLKYYYLPNNL”, the protein production entry was “not failed”.

Take “DFPKINHGILYDEEKYKPFSQVPTGEVFYYSCEYNFVSPSKSFWTRITCAEEGWSPTPKCLRLCFFPFVENGHSESSGQTHLEGDTVQIICNTGYRLQNNENNISCVERGWSTPPKCRSTISAEKCGPPPPIDNGDITSFLLSVYAPGSSVEYQCQNLYQLEGNNQITCRNGQWSEPPKCLDPCVISQEIMEKYNIKLKWTNQQKLYSRTGDIVEFVCKSGYHPTKSHSFRAMCQNGKLVYPSCEEK”: the protein production result was “not failed”.

Consider “DFRASATRPFTGEEYLASLRDDREIYIYGDRVKDVTSHPAFRNAAASMARLYDALHDPQSKEKLCWETDTGNGGYTHKFFRYARSADELRQQRDAIAEWSRLTYGWMGRTPDYKAAFGSALGANPGFYGRFEDNAKTWYKRIQEACLYLNHAIVNPPIDRDKPVDQVKDVFISVDEEVDGGIVVSGAKVVATNSALTHYNFVGQGSAQLLGDNTDFALMFIAPMNTPGMKLICRPSYELVAGIAGSPFDYPLSSRFDENDAILVMDKVFIPWENVLIYRDFERCKQWFPQGGFGRLFPMQGCTRLAVKLDFITGALYKALQCTGSLEFRGVQAQVGEVVAWRNLFWSLTDAMYGNASEWHGGAFLPSAEALQAYRVLAPQAYPEIKKTIEQVVASGLIYLPSGVRDLHNPQLDKYLSTYCRGSGGMGHRERIKILKLLWDAIGSEFGGRHELYEINYAGSQDEIRMQALRQAIGSGAMKGMLGMVEQCMGDYDENGWTVPHLHNPDDIN”, for which the protein production entry is listed as “failed”.

Take “DGAVQYYDGAVTEITEQKRQEQQLRQSRERWRRLVEKLQDGLHIAVDGDIRYINPAGAEILGADAPDDVIGHSLWDFVALEQAQQEIFEDRLRKIYRERTSTAPQEMEITGLNGERRVIESYTVPIKFDGEQAGQTVFRDITEQKEMEQALREREARLRSITENVS”: the protein production result is listed as “failed”.

Consider “DHKDLIVVAAKHGYALADRNTGQLSYIRKVWDEQEDPEKARRMRFNDGAVDSHGRFWAGSMNDPKVQKPTNEGVLFRLDPDLQLHRMVEGVSIPNGIGWNLRDDTMYFTDSPTAKIFAFDFDASTGTISNRRVHYDVGEPMEPDGFAIDEEGCIWSAIYGGGKIIRISPEGKLIGEISFPTRNITCPTFVGTELFVTTAKDDVNDEQFPESVRYGGRVYRIDVGVRGKPKNEFRFQK”, for which the protein production result is “failed”.

As for “DIENSPIKDDNSIIEIFSYGCHYCAINEDNVSQLENRMPEGTRFIRLHISSDKTTGLGRFAPVFATLSVMGIEPQHRQSAYKAVLDDNSDLSDNRQLETWLKANDIDVAKYQQVSQSAEVKALISYMTAVTAHYKIDATPTFIVGKKWIALQDREFPAFSDHLLSLLEHD”, the protein production entry is given as “failed”.

Consider “DISSTEIWDAIRRNSFLLYYQPKVDAKTNELIGFEGLIRLKTATAILAPADFFEDIALLNATREMQDFVAETAIEQINQLGGRFSISINIPAHYVVSSNYMTFLYDYVKEHLKYPECLEIEIIERGEITELAVADKNLRKIKKLGVTVSMDDFGKGYSSLAYLRSLPIDIVKTDMSFIALLKTDRKQQIIIQAIVNLCHDLGGKVVTEGVEDIEQVKTLREMKVDYFQGYYFSRP”, for which the protein production result was “not failed”.

Consider “DLDGLLQRTVERARDMLDADSAFLLLATDDETELEVRASTGLPSARQRFARVPVDAGPGRYGSARMPAVHDDLTAVPGAVPLLSGTGMRSVVTVPLKVEGRLTGSLGVAAESPSRYSNEEALRLQFAADRIALAVESA”, for which the protein production entry was “failed”.

“DLEFQKGVEQILNQYFNSELASGNTKYSEGVYAVVLNPNTGAVLSMAGLEHDLKTGEVSSNALGAVTEVFTPGSVVKGATLTAGWENGVLSGNQVLNDQPIQFAGSSPINSWFTNGSTPLTASQSLEYSSNTYMVQLALKLMGQDYHSGMTLSTDGYKEAMEKLRATYAQYGLGVSTGIDLPGESKGYTPEHYDPSNVLTESFGQFDNYTAMQLAQYAAAVANGGKRIAPHLVEGIYDNNKTGGLGNLVQSIDTKVLNNVSISSDDMGIIKEGFYNVVNGGSYATGKTLAKGASVPISAKTGTAEAYVTGDDGKSVYTSNLNVVAYAPSSNPQIAVAVVLPHETDLHGTTSHAITRDIINLYQKMYPMNQ”: the protein production entry is given as “failed”.

Consider “DLEVHGDKDDAELLIIGWGGTYGHLYETMERMRNAGKKVALAHFRFINPLPKNTAEVLQRYPKAVVAEQNLGQFALYLRGEVPGFHPLQFNRVTGQPLVMSEMVEVFTQMMEEK”, for which the protein production entry was “failed”.

As to “DLQAYLQAHYDVLEGKIQLDINGTEIQKGVWVGSGAIIEPGAILNPPCVIGDNCRIESGAVIDSLSVIGNNNVIERDSSVKRSVIWDGNYIEYGSK”, the protein production result is “failed”.

As for “DLRSLFQTTVTEVRKLLVADRVMIIKVRQNKNFSWGEIQAEAQTDDKLCLLPPKERVPLSSRWIDHFAKGLILAMDDTDDQRADFDQSMLALAKANLVVPLFSGDRLWGVLSVHQCDGPRVWESSDIEFALKIALNLGVALQQAELLTESQRRSTALQSALGEVEAQKDYLARIAEEERALTRVIEGIRQTL”, the protein production entry was “failed”.

Regarding “DPDEDSDNSAIYVQGLNDSVTLDDLADFFKQCGVVKMNKRTGQPMIHIYLDKETGKPKGDATVSYEDPPTAKAAVEWFDGKDFQGSKLKVSLARKKPPMN”, the protein production result is recorded as “not failed”.

For the sequence “DRNSYSKTDYDATFMRMKEDHMKNGQLKPGYNLQIATNSQFVLSYNVYQNPTDTRTMIPFLNSIQETYGHLPEYIVADAGYGSESNYKAIIDDFNRTPLITYGMFIKDKTKKYKSDIFNTQNWNYDEIN”, the protein production entry is “failed”.

Take “DSGYSRETRALLFRAYRHDPTFAYLFNAEREGYEQRVLATIRQLVKQHFLQNQPALGLFLEDRLVGVALIAPPLRRLGVTESWAWRLRMVMDTGLGCTQRYLAYYNAVLACLPSETVHVLPLIGLDPEFQGQKMGQDLSEQLLAALHDWCAVDENSQGIVVDTGNPRYLEFYKRQGYEEIGEIAVGPV”: the protein production result is given as “not failed”.

With “DSKDLALCSMILTEMETHEDAWPFLLPVNLKLVPGYKKVIKKPMDFSTIREKLSSGQYPNLETFALDVRLVFDNCETFNEDDSDIGRAGHNMRKYFEKKWTDTFK”, the protein production entry was “not failed”.

As to “DSSMKTDVVEHDKDYVVTAELPGFKKDDIHVDYHDETLRISGKTEVNQSAKDDDGRILRQERRSQNVARSFYLPGIDLKNVKATYADGILTLTLPKQTEVDGSHEISID”, the protein production result is listed as “failed”.

Regarding “DTRWLAFNIQRAVFSDRRVREAITLAFDFEWMNKALFYNAWSRTNSYFQNTEYAARNYPDAAELVLLAPMKKDLPPEVFTQIYQPPVSKGDGYDRDNLLKADKLLNEAGWVLKGQQRVNATTGQPLSFELLLPASSNSQWVLPFQHSLQRLGINMDIRKVDNSQITNRMRNRDYDMMPRLWRAMPWPSSDLQISWSSEYINSTYNAPGVQSPVIDSLINQIIAAQGNKEKLLPLGRALDRVLTWNYYMLPMWYMA”, the protein production entry is recorded as “failed”.

As to “DVTYDGHPVPGSPYTVEASLPPDPSKVKAHGPGLEGGLVGKPAEFTIDTKGAGTGGLGLTVEGPCEAKIECSDNGDGTCSVSYLPTKPGEYFVNILFEEVHIPGSPFKADIEMPFDPS”, the protein production result is reported as “not failed”.

Take “EALQGLLGAGWWELCPDTAEILLASRLAASLHLPEDGARLNVQAWLELIHPADRGELSSRLQELKLGKPLLLNVRLHEPDPSAPQRWYRLQGQALGRGESQRLVGFMLDISD”: the protein production entry is on record as “failed”.

Turning to “EAPLLYGDSSPEIVLVGHGSTYGVIKEIVDIFSKDKKIAMMHFSQIYPFPERDRFDYIEFLKNANLVISVENNATGQFAKLMRAETGFEFARQILKYDGRPFTIEKLKEEIDAC”, the protein production entry was “not failed”.

In the case of “ECTIKNNIENILRNSYINVGYEEVRSPTLEFYDVYNLENQPISQEKMYKLFDNTGRILVLRPDMTTPIARICATKLKNRVYPLKLSYTGNIYRMNKALNGKISEITQSGIEILGFSSLKADAEVIITAIKAILKTGLKNFKIEIGQVEFFKSIISDTALKEQDTEKLRNFIENKNFSKVEEFILRNSDLIGETSSKVLMNLPNLFGGKEVIEKAEQLTSNKQAIEALKKVRDLYDIVKRAGFGEYILIDLGMVQHINYYTGLIFRGYAHGIGDDLLSGGRYDKLLGQFGYDIPATGLAINVDNLVA”, the protein production entry is given as “failed”.

For the sequence “EEGLEIATLKRIVADMHAAAETAGVHIVTGDTKVVPKGTCDKLYITTAGVGIIPEGRTSADPQIGDAIIVSGPIADHGMAVMMARGDLAISAPIESDTRSVNGQIEALYAAGVTPRWMRDATRGGLATVMNELARATGLGVALNDPLPVRDMTRAACDMLGIDPMYVANEGTFVAIVPADQVDTALATIPEASCIGQIVEQPAASVVLRTGFGGSRMVDMLVGDPLPRIC”, the protein production entry is “failed”.

On to “EELIEIREARMDDLDTIAKFNYNLAKETEGKELDMDVLTKGVKALLLDERKGKYHVYTVFDKVVAQIMYTYEWSDWRNGNFLWIQSVYVDKEYRRKGIFNYLFNYIKNICDKDENIVGMRLYVEKENINAKATYESLNMYECDYNMYEYEVIHS”, for which the protein production entry is “not failed”.

With “EFYCEVLLLDESKLTLTTQQQGIKKSTKGSVVLDHVFHHVNLVEIDYFGLRYCDRSHQTYWLDPAKTLAEHKELINTGPPYTLYFGIK”, the protein production result is given as “failed”.

“EIAVPTLFVHGYSGTANSFKGMINRLADDGIVTESLVMTVAADGSVSTTGSYDKFSHNPTIQVIFEDNKSSMVNQTQWIQNVMKELKNNYHIEKVDAVGHSMGGVSLTSYIEKVGSDKAYPVLENLVLIGAPLNGLVVGDNGVTAYDLTDEGPKQSSDRYSEFMKNKQKIPTNLQVLNIAGDMLDGTKSDGSVSVASALSGKFIFEGQAKSYEEKIFTGKKAAHSKLHENTDVDAKVANFLWGTEKVD”: the protein production result is recorded as “failed”.

With “EITSANTEWFFNPNAYVIIAESVESGKIVGGARIHIVGGTQPLPIEDAIGKMDPHIYKLVEEHGKKGSGELCGLWNAREVAGMGISTMLTRAAIALAIQLNLSTLFVICAERTYQNIFKDQGFEIIP”, the protein production entry is listed as “failed”.

Take “EKEFYLDSSSEALEEKAITHTSKKPDTPEEITISLNGHLFTGNTEQPLLMQVEEAGLSINNSCRAGLCGACRVTLESGEVEQEDSPALNQKLKEAGMILACCSVPKTDVEIVD”: the protein production entry is reported as “failed”.
